Test results as given in patent US20030186877A1 (BRIGHAM AND WOMEN S HOSPITAL, published 2003).
Square brackets hold non-standard residues; d marks the D form. * marks the point of attachment. dBpa = N[C@H](Cc1ccc(C(=O)c2ccccc2)cc1)C(=O)O; Boc = CC(C)(C)OC(=O)*; Aib = CC(C)(N)C(=O)O

target: γ-secretase; experiment: cell-based or functional assay

Row | Binder | IC50 of blocking Aβ production in APP-transfected cells | IC50 in the same cell-based assay using CHO cells stably transfected with human APP (production of total Aβ)
1 | Boc-[Aib]AL[Aib]AL[Aib]AL[Aib]-OMe (SMILES COC(=O)C(C)(C)NC(=O)[C@H](CC(C)C)NC(=O)[C@H](C)NC(=O)C(C)(C)NC(=O)[C@H](CC(C)C)NC(=O)[C@H](C)NC(=O)C(C)(C)NC(=O)[C@H](CC(C)C)NC(=O)[C@H](C)NC(=O)C(C)(C)NC(=O)OC(C)(C)C) [Boc-Aib-Ala-Leu-Aib-Ala-Leu-Aib-Ala-Leu-Aib-O-methylester] | 2 µM | 
2 | Boc-[dV]G[Aib][dV][dV][dBpa][Aib][dThr(OBz)][dV][Aib]-OMe [Boc-D-Val-Gly-Aib-D-Val-D-Val-D-BPA-Aib-D-Thr(OBz)-D-Val-Aib-OMe] |  | 0.1 µM

target: γ-secretase; experiment: cell-based or functional assay; remark: another data set of the same source

Row | Binder | IC50: concentration of compound that reduced production of total Aβ by 50% in a cell-based assay using CHO cells stably transfected with human APP
3 | Boc-VG[Aib]VVI[Aib][Thr(OBz)]V[Aib]-OMe [Boc-Val-Gly-Aib-Val-Val-Ile-Aib-Thr(OBz)-Val-Aib-OMe] | 3 µM
4 | Boc-A[Thr(OBz)][Aib]IV[Aib]-OMe [Boc-Ala-Thr(OBz)-Aib-Ile-Val-Aib-OMe] | 25 µM
5 | Boc-GV[Aib]IA[Thr(OBz)][Aib]IV[Aib]-OMe [Boc-Gly-Val-Aib-Ile-Ala-Thr(OBz)-Aib-Ile-Val-Aib-OMe] | 5 µM
6 | Boc-V[Aib]IA[Thr(OBz)][Aib]IV[Aib]-OMe [Boc-Val-Aib-Ile-Ala-Thr(OBz)-Aib-Ile-Val-Aib-OMe] | 2 µM
7 | Boc-VVI[Aib][Thr(OBz)]V[Aib]-OMe [Boc-Val-Val-Ile-Aib-Thr(OBz)-Val-Aib-OMe] | 6 µM
8 | Boc-IA[Thr(OBz)][Aib]IV[Aib]-OMe [Boc-Ile-Ala-Thr(OBz)-Aib-Ile-Val-Aib-OMe] | 15 µM
9 | Boc-VI[Aib][Thr(OBz)]V[Aib]-OMe [Boc-Val-Ile-Aib-Thr(OBz)-Val-Aib-OMe] | 12 µM
10 | Boc-G[Aib]VVI[Aib][Thr(OBz)]V[Aib]-OMe [Boc-Gly-Aib-Val-Val-Ile-Aib-Thr(OBz)-Val-Aib-OMe] | 3 µM
11 | Boc-[Aib]VVI[Aib][Thr(OBz)]V[Aib]-OMe [Boc-Aib-Val-Val-Ile-Aib-Thr(OBz)-Val-Aib-OMe] | 6 µM
12 | Boc-[Aib]IA[Thr(OBz)][Aib]IV[Aib]-OMe [Boc-Aib-Ile-Ala-Thr(OBz)-Aib-Ile-Val-Aib-OMe] | 10 µM
